According to PMC11169713 (2024):

How the values were obtained:
Experiment in all cases: SPR
MEDI8852 UCA = target: MEDI8852 UCA
MEDI8852 mature = target: MEDI8852 mature
56.a.09 mature = target: 56.a.09 mature
56.a.09 UCA = target: 56.a.09 UCA

B1: 28H6E11 Fab (anti-idiotype antibody) (Fab, V domains shown)
VH: QVQLQQSGPEVVRPGVSVKISCKGSGYTFTDHAMHWVKQSHAKSLEWIGVFNTYNGDTNYNQKFEDKATMTIDKSSSTAYLELARLTSEDSAIYYCVRLGLLGFYALDYWGQGTSVTVSS
VL: DVLMTQTPLSLPVSLGDQASISCRSSQSIVHSNGNTYLEWYLQKPGQSPKLLIYKVSNRFSGVPDRFSGSGSGTDFTLKISRVEAEDLGVYYCFQGSHVPLTFGAGTKLELK
For B1, the Kd (MEDI8852 UCA) was 0.943 nM, the Kd (MEDI8852 mature) was 941 nM and the Kd (56.a.09 mature) was 496 nM. The Kd (56.a.09 UCA) was 32500 nM.
